According to patent US20230201308A1, “TREATMENT OF CORONAVIRUS INFECTION WITH […]” (Eiger Biopharmaceuticals, Inc., priority 2020, published 2023):
Read-outs that look alike come from different tables or passages of the source.

What was measured:
SARS-CoV-2 [1] = assay: First trial: single 180 mcg dose vs placebo in 120 participants with COVID-19; assay type: in vivo, human
Protocol: Using the methods and criteria described above in Examples 1-3, a first trial was performed. In the first trial, 120 participants were enrolled; 70 (58.3%) were male, 75 (62.5%) identified as Latinx, and the median duration of symptoms prior to randomization was 5 days. Sixty participants were randomly assigned to receive 180 mcg pegylated interferon lambda-1a, and 60 participants were assigned to receive a placebo. […] Subjects viral samples were taken by oral pharyngeal swabs. The median time to cessation of viral shedding was 7 days in both arms (hazard ratio [HR] for duration of shedding 0.81 comparing Lambda vs. placebo; 95% confidence interval [CI] 0.56 to 1.19; p=0.29). No difference in time to resolution of symptoms was observed comparing interferon lambda vs. placebo (HR 0.94; 95% CI 0.64 to 1.39; p=0.76). Two serious adverse events were reported in each arm. Liver transaminase elevations were more common in the interferon lambda vs. placebo arm (15/60 vs 5/60; p=0.027).

[2] = for Aes: outside of the directed symptom categories
Protocol: Detailed directed and open-ended symptoms were assessed serially. Because of overlap between symptoms of COVID-19 and potential peginterferon-lambda Aes, symptoms were recorded and Aes were considered any symptom outside of the directed symptom assessment. Laboratory AE severity was graded using the Common Terminology Criteria for Adverse Events (CTCAE) Version 5.0.

SARS-CoV-2 [3] = assay: Third trial (TOGETHER): virological assessment, quantitative real-time PCR of mid-turbinate swabs; assay type: in vivo, human; details: for proportion of participants with a negative swab for SARS-CoV-2 RNA: Canadian cohort
[4] = Baseline Viral Load <10E6 copies/mL
[5] = Baseline Viral Load ≥10E6 copies/mL
[6] = n=30, listed as Peginterferon Lambda
[7] = n=30, listed as peginterferon-lambda
[8] = Day 7, high baseline viral load

B1: pegylated interferon lambda-1a (protein)
chain: MKPTTTGKGCHIGRFKSLSPQELASFKKARDALEESLKLKNWSCSSPVFPGNWDLRLLQVRERPVALEAELALTLKVLEAAAGPALEDVLDQPLHTLHHILSQLQACIQPQPTAGPRPRGRLHHWLHRLQEAPKKESAGCLEASVTFNLFRLLTRDLKYVADGNLSLRTSTHPEST
modifications: PEG
notes: 180 mcg subcutaneous injection
With B1 the “shedding cessation relative to placebo” value (SARS-CoV-2 [1]; seronegative at baseline) was “delayed shedding cessation relative to placebo”, the “shedding cessation relative to placebo” value (SARS-CoV-2 [1]; seropositive at baseline) was “appeared to hasten shedding cessation” and the “effect on duration of viral shedding and symptoms compared to placebo” value (SARS-CoV-2 [1]; single 180 mcg s.c.) was “neither shortened the duration of SARS-CoV-2 viral shedding nor improved symptoms”. The “hazard ratio for duration of shedding vs. placebo” value (SARS-CoV-2 [1]; single 180 mcg s.c.) was 0.81, the “hazard ratio, time to resolution of symptoms vs. placebo” value (SARS-CoV-2 [1]; single 180 mcg s.c.) was 0.94 and the “liver transaminase elevations (participants of arm)” value (SARS-CoV-2 [1]; single 180 mcg s.c.) was 15/60. The “serious adverse events reported in the arm” value (SARS-CoV-2 [1]; single 180 mcg s.c.) was “Two”, the tolerability (SARS-CoV-2 [1]; single 180 mcg s.c.) was “well tolerated” and the “median time to cessation of viral shedding” value (SARS-CoV-2 [1]; single 180 mcg s.c., n=60) was 7 days. The deaths ([2]; 14 days) was “No deaths”, the “OR symptom progression vs Placebo, All Symptoms” value ([2]; All samples) was 3.15 and the “OR symptom progression vs Placebo, Fever Syndrome” value ([2]; All samples) was 1.69. The “OR symptom progression vs Placebo, Gastrointestinal” value ([2]; All samples) was 0.48, the “OR symptom progression vs Placebo, Mood” value ([2]; All samples) was 0.90 and the “OR symptom progression vs Placebo, Musculoskeletal” value ([2]; All samples) was 1.80. The “OR symptom progression vs Placebo, Neurologic” value ([2]; All samples) was 5.07, the “OR symptom progression vs Placebo, Respiratory” value ([2]; All samples) was 4.67 and the “OR symptom progression vs Placebo, Skin” value ([2]; All samples) was 0.76. For the same molecule, the “OR symptom progression vs Placebo, All Symptoms” value [2, 4] was 1.63, the “OR symptom progression vs Placebo, Fever Syndrome” value [2, 4] was 4.83 and the “OR symptom progression vs Placebo, Gastrointestinal” value [2, 4] was 0.40. For the same molecule, the “OR symptom progression vs Placebo, Mood” value [2, 4] was 0.32, the “OR symptom progression vs Placebo, Musculoskeletal” value [2, 4] was 2.55 and the “OR symptom progression vs Placebo, Neurologic” value [2, 4] was 1.60. For the same molecule, the “OR symptom progression vs Placebo, Respiratory” value [2, 4] was 3.67, the “OR symptom progression vs Placebo, Skin” value [2, 4] was 0.51 and the “OR symptom progression vs Placebo, All Symptoms” value [2, 5] was 2.39. The “OR symptom progression vs Placebo, Fever Syndrome” value [2, 5] was 1.24, the “OR symptom progression vs Placebo, Gastrointestinal” value [2, 5] was 0.58 and the “OR symptom progression vs Placebo, Mood” value [2, 5] was 1.29. For the same molecule, the “OR symptom progression vs Placebo, Musculoskeletal” value [2, 5] was 1.19, the “OR symptom progression vs Placebo, Neurologic” value [2, 5] was 2.61 and the “OR symptom progression vs Placebo, Respiratory” value [2, 5] was 5.88. The “OR symptom progression vs Placebo, Skin” value [2, 5] was 1.90, the “Emergency Room visits” value ([2]; n=30) was 1 and the Hospital admissions ([2]; n=30) was 1. For the same molecule, the “Lab Abnormalities (grade 3 or 4), Alanine aminotransferase (ALT)” value ([2]; n=30) was 1, the “Lab Abnormalities (grade 3 or 4), Aspartate aminotransferase (AST)” value ([2]; n=30) was 1 and the “Lab Abnormalities (grade 3 or 4), Creatinine” value ([2]; n=30) was 0. The “Lab Abnormalities (grade 3 or 4), Hemoglobin” value ([2]; n=30) was 0, the “Lab Abnormalities (grade 3 or 4), Lymphocytes” value ([2]; n=30) was 0 and the “Lab Abnormalities (grade 3 or 4), Neutrophils” value ([2]; n=30) was 0. For the same molecule, the “Lab Abnormalities (grade 3 or 4), Platelets” value ([2]; n=30) was 0, the “Lab Abnormalities (grade 3 or 4), Total bilirubin” value ([2]; n=30) was 0 and the “Lab Abnormalities (grade 3 or 4), White Blood Cells” value ([2]; n=30) was 0. The “Treatment-Related Aes” value ([2]; n=30) was 0, the “Treatment-Related SAEs” value ([2]; n=30) was 0 and the “Severe Symptoms, number of patients” value ([2]; n=30, 14 days) was 7. For the same molecule, the “Severe Symptoms, reports” value ([2]; n=30, 14 days) was 20, the SAEs [2, 6] was 1 and the SAEs [2, 7] was “One”. The Aes [2, 6] was 2, the Aes [2, 7] was “two” and the “aminotransferase elevations compared to placebo” value ([2]; single 180 mcg s.c.) was “higher rate of transient aminotransferase elevations”. The tolerability ([2]; single 180 mcg s.c.) was “well-tolerated with few adverse events”, the “proportion of participants with a negative swab for SARS-CoV-2 RNA” value (“proportion of participants” below) (SARS-CoV-2 [3]; Day 0 post injection) was 0 and the “proportion of participants” value (SARS-CoV-2 [3]; Day 1 post injection) was 0. The “proportion of participants” value (SARS-CoV-2 [3]; Day 2 post injection) was 7, the “proportion of participants” value (SARS-CoV-2 [3]; Day 3 post injection) was 27 and the “proportion of participants” value (SARS-CoV-2 [3]; Day 4 post injection) was 40. For the same molecule, the “proportion of participants” value (SARS-CoV-2 [3]; Day 5 post injection) was 60, the “proportion of participants” value (SARS-CoV-2 [3]; Day 6 post injection) was 64 and the “odds ratio, below the limit of quantitation vs placebo” value (SARS-CoV-2 [3]; [8]) was 2.13. The “patients below the limit of quantitation” value (SARS-CoV-2 [3]; [8]) was 50.5%, the “treatment effect on viral load (Beta)” value (SARS-CoV-2 [3]; Day 7, high baseline viral load (≥192,841,278 copies/mL)) was −1.01 and the “median viral load decline from baseline” value (SARS-CoV-2 [3]; Day 7, hospitalized patients) was 7.19 log copies/mL. For the same molecule, the “proportion of participants” value (SARS-CoV-2 [3]; Day 7 post injection) was 86, the “proportion of participants” value (SARS-CoV-2 [3]; Day 8 post injection) was 92 and the “proportion of participants” value (SARS-CoV-2 [3]; Day 9 post injection) was 85. The “proportion of participants” value (SARS-CoV-2 [3]; Day 10 post injection) was 92, the “proportion of participants” value (SARS-CoV-2 [3]; Day 11 post injection) was 100 and the “proportion of participants” value (SARS-CoV-2 [3]; Day 12 post injection) was 100. For the same molecule, the “proportion of participants” value (SARS-CoV-2 [3]; Day 13 post injection) was 100, the “proportion of participants” value (SARS-CoV-2 [3]; Day 14 post injection) was 100 and the “median log decline in viral load” value (SARS-CoV-2 [3]; by Day 7, high baseline viral load) was 8.29. For the same molecule, the “viral loads by Day 7” value (SARS-CoV-2 [3]; final analysis) was “significantly lowered” and the “treatment effect on viral load (Beta)” value (SARS-CoV-2 [3]; low baseline viral load group) was 0.22.
